The results in this text go back to patent US20210139588A1 (STCUBE, published 2021).

B1: 4NQ mutant (unglycosylated) PD-1 expressed on 293T cells (PD-1-Flag) (receptor)
chain: LDSPDRPWNPPTFSPALLVVTEGDQATFTCSFSQTSESFVLNWYRMSPSQQTDKLAAFPEDRSQPGQDCRFRVTQLPNGRDFHMSVVRARRQDSGTYLCGAISLAPKAQIKESLRAELRVTERRAEVPTAHPSPSPRPAGQFQTLVVGVVGGLLGSLVLLVWVLAVICSRAARGTIGARRTGQPLKEDPSAVPVFSVDYGELDFQWREKTPEPPVPCVPEQTEYATIVFPSGMGTSSPARRGSADGPRSAQPLRPEDGHCSWPL
notes: also called PD-1 4NQ; not shown: Flag tag

Test [1] addresses T1, recombinant human PD-L1-Fc chimera protein (R&D Systems) (human, UniProt Q9NZQ7 19-239).
T1 construct: Bought reagent; Used fluorescently labeled or detected with anti-human-Fc Alexa Fluor 488; also called PD-L1-Fc fusion protein; not shown: Fc portion, detected with anti-human IgG
The experiment in a line: live-cell imaging (IncuCyte) of labeled PD-L1-Fc on 293T cells. An excerpt: PD-L1 and PD-1 (PD-L1/PD-1) interaction assay. […] The secondary antibodies used were anti-human Alexa Fluor 488 dye conjugate (Life Technologies). The fluorescence intensity of Alexa Fluor 488 dye was then monitored using a real-time microscope IncuCyte (Essen BioScience, Ann Arbor, Mich., USA).
Ligand and receptor binding was quantified by IncuCyte™Zoom every hour, according to the manufacturer's instructions.

For test [2], the target named is T2, N116Q mutant PD-1 expressed on 293T cells (PD-1-Flag) (human, UniProt Q15116 25-288).
T2 construct: also called N116Q PD-1; not shown: Flag tag
The experiment in a line: flow cytometry on 293T cells expressing the PD-1 variant, anti-mouse IgG-PE secondary, DAPI-negative population gated; percent of cells right of the dashed gate; 293T blank cells give 2.71. As to the method: (§1) Flow Cytometry. Cells overexpressing PD-1 wild type and mutant proteins or control vector were isolated by trypsinization and collected in Cell Staining Buffer (CSB) (BioLegend, San Diego, Calif., US) at 2×10⁶ cells/mL. 50 μL of cells were aliquoted to a 96 well round-bottom plate, to which 50 μL of 20 μg/mL primary antibody was added, followed by gentle mixing and 1 h incubation at 4° C. in the dark. Cells were washed with CSB, incubated with anti-mouse IgG-PE conjugate (10 μg/mL) with DAPI (1:100) 30 minutes 21° C. in the dark. Cells were washed and data acquired using Guava EasyCyte HT (Millipore Darmstadt, Del.) or FACS Celesta (Becton Dickinson, Franklin Lakes, N.J., US) flow cytometer.
On the technique in general: Flow cytometry measures light scatter and fluorescence of single cells or particles in a stream.

The target in test [3] is T3, N49Q mutant PD-1 expressed on 293T cells (PD-1-Flag) (human, UniProt Q15116 25-288).
T3 construct: also called N49Q PD-1; not shown: Flag tag
The test is described as above. As to the method: as §1

The target of test [4] is T4, N74Q mutant PD-1 expressed on 293T cells (PD-1-Flag) (human, UniProt Q15116 25-288).
T4 construct: also called N74Q PD-1; not shown: Flag tag
Described as above. As to the method:
as §1

In test [5] the target is B1. Described as above. As to the method:
as §1

The target in test [6] is T2, N116Q mutant PD-1 expressed on 293T …. The experiment in a line: flow cytometry on 293T cells expressing the PD-1 form, labeled secondary antibody. The method, then: as §1
Test [7] deals with T5, N58Q mutant PD-1 expressed on 293T cells (PD-1-Flag) (human, UniProt Q15116 25-288).
T5 construct: also called N58Q PD-1; not shown: Flag tag
The description is as above. The method, then:
as §1

Test [8] concerns the target T6, wild type (glycosylated) PD-1 expressed on 293T cells (PD-1-Flag) (human, UniProt Q15116 25-288, N-linked glycosylation at N49, N58, N74 and N116).
T6 construct: also called PD-1 WT; not shown: Flag tag
Described as above. The method, then:
as §1

Test [9] deals with T3, N49Q mutant PD-1 expressed on 293T …. Described as above. As to the method:
as §1

Test [10] deals with T4, N74Q mutant PD-1 expressed on 293T …. The description is as above. As to the method: as §1
The target of test [11] is B1. The description is as above. As to the method: as §1
Test [12] has as its target T6, wild type (glycosylated) PD-1 expressed …. Nature of the test: flow cytometry on 293T cells; reference: 4NQ PD-1 cells. As to the method:
as §1

The target of a further test is T7, PD-1-His (Homo sapiens (Human), UniProt Q15116 25-170, limits assumed).
T7 construct: also called glycosylated PD-1 (BIACORE antigen); not shown: His tag
Nature of the test: BIACORE (SPR), antigen PD-1-His. (Surface plasmon resonance follows binding to a sensor surface in real time, without labels.)

The target in test [13] is B1. Nature of the test: flow cytometry on 293T cells expressing 4NQ PD-1, anti-mouse IgG-PE secondary. As to the method: as §1
The target of test [14] is T2, N116Q mutant PD-1 expressed on 293T …. The experiment in a line: flow cytometry on 293T cells expressing N116Q PD-1, anti-mouse IgG-PE secondary. The method, then: as §1
Test [15] concerns the target T8, N49Q mutant PD-1-Fc protein (Homo sapiens (Human), UniProt Q15116 25-170).
T8 construct: also called PD-1 with a mutant glycosylation site at position 49; not shown: Fc portion
Nature of the test: Western blot of PD-1-Fc proteins. (In western blotting, separated proteins are transferred to a membrane and probed.)

Test [16] concerns the target T9, N74Q mutant PD-1-Fc protein (Homo sapiens (Human), UniProt Q15116 25-170).
T9 construct: also called PD-1 with a mutant glycosylation site at position 74; not shown: Fc portion
Nature of the test: Western blot of PD-1-Fc proteins.

Test [17] addresses T6, wild type (glycosylated) PD-1 expressed …. The experiment in a line: inhibition of PD-L1-Fc binding to 293T cells overexpressing PD-1, IncuCyte fluorescence imaging. The method, then:
Green fluorescence was measured every 2 hours by IncuCyte™ Zoom device and quantitated by IncuCyte™ Zoom Software (Essen BioScience, Ann Arbor, Mich., USA).

In test [18] the target is T4, N74Q mutant PD-1 expressed on 293T …. The experiment in a line: flow cytometry on 293T cells expressing N74Q PD-1, anti-mouse IgG-PE secondary. The method, then:
as §1

Test [19] has as its target T3, N49Q mutant PD-1 expressed on 293T …. Nature of the test: flow cytometry on 293T cells expressing N49Q PD-1, anti-mouse IgG-PE secondary. The method, then: as §1
For test [20], the target named is T6, wild type (glycosylated) PD-1 expressed …. Nature of the test: flow cytometry on 293T cells expressing wild type PD-1 against 293T cells expressing 4NQ PD-1, labeled secondary antibody. As to the method:
as §1

T1 sequence (Q9NZQ7 19-239 limits assumed, change not shown): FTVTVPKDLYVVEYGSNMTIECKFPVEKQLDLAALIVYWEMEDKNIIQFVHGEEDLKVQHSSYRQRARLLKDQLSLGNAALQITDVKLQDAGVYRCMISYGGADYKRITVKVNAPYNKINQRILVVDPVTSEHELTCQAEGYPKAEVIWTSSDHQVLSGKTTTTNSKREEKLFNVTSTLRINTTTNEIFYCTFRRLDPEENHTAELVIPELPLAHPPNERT

Regarding B1, the binding result in test [1] is “no binding”.

B2: anti-glycPD-1 monoclonal antibody STM432 (antibody, V domains shown)
VH: EVMLVEPGGGLVKPGGSLKLSCAASGFTFSSYGMSWVRQTPEKRLEWVATISGGGANTYYPDTVKGRFTISRDNAKNTLYLQMNSLRSEDTALYYCARYGYDTVFAYWGQGTLVTVSA
VL: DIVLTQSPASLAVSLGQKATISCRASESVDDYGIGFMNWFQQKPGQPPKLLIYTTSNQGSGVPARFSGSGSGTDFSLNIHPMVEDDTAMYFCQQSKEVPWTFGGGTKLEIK
notes: Mouse monoclonal antibody from a hybridoma; also called MAb STM432
The term Kd denotes a measure of binding affinity in units of concentration. Low values mean higher affinity, high ones lower affinity. The term koff denotes the first-order rate constant of dissociation. A low value points to slow dissociation. As usually defined, the kon is a measure of how fast the partners come together. A low value points to slower complex formation. A word on the EC50: it is the concentration that produces a half-maximal response. Higher therefore signals weaker potency. For B2, the “Unit (%) (cells in the positive gate)” value was determined as 4.12% in [2], 4.6% in [3], 7.71% in test [4] and 1.82% in test [5]. For the same molecule, the MFI was determined as 31 MFI in test [6]; 413 MFI in [7]; 1140 MFI in [8]; 32 MFI in test [9]; 29 MFI in test [10]; 26 MFI in test [11]. The “fold MFI on wild type PD-1 against unglycosylated 4NQ mutant PD-1” value in test [12] was approximately 43 fold. In addition, the affinity in the test with PD-1-His, expressed as Kd, was 296 nM. This molecule showed an off-rate (koff) in the test with PD-1-His of 0.0053 s⁻¹. The kon in the test with PD-1-His was determined as 17900 M⁻¹ s⁻¹. In addition, the binding result in test [13] is recorded as “no binding”; in test [14] it was “no binding”; in test [15], “no binding (tested: 0.5 µg protein on the blot)”; in test [16] it was “no binding (tested: 0.5 µg protein on the blot)”; in test [18], “no binding”; in [19], “no binding”. This molecule also had an EC50 in test [17] of 0.11 µg/mL. Besides, the “fold MFI against binding to the unglycosylated 4NQ mutant PD-1” value in [20] was approximately 43 times.
